# Measurements as given in article PMC5358875 (Journal of the American Chemical Society, 2017).
# Bridge positions count the residues as written; N and C are the ends. Square brackets hold non-standard residues; d marks the D form. Ends that are not written are not given here. * marks the point of attachment. 5‑TAMRA = CN(C)c1ccc2c(-c3ccc(C(=O)*)cc3C(=O)[O-])c3ccc(N(C)C)cc3[o+]c2c1; n3 = azido unnatural amino acid, 3 CH2 in side chain; Lys(N3) = [N-]=[N+]=NCCCC[C@H](N)C(=O)O; Dap(N3) = [N-]=[N+]=NC[C@H](N)C(=O)O; Aha = [N-]=[N+]=NCC[C@H](N)C(=O)O; m3c = not defined here; m3 = not defined here; m4 = not defined here; m5 = not defined here; Ahx = NCCCCCC(=O)O
# Biological target: T1, TNKS2 ARC4 (Homo sapiens, UniProt Q9H2K2)
# T1 construct: GST (cleaved yes); made in house; host or cells: E. coli C41(DE3)
# T1 sequence (Q9H2K2 488-649): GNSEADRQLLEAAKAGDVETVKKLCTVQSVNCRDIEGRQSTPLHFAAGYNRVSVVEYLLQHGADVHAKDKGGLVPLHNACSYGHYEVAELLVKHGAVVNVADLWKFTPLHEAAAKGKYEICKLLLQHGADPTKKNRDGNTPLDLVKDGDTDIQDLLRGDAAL
# Test: Direct fluorescence polarization, TNKS2 ARC4
# Assay type: binding
# Details: TAMRA-labeled peptides; n.d. = not detectable; read-out: Kd TNKS2 ARC4 (Direct FP)
# Method: Fluorescence polarization (FP) assays were performed in 96-well half area black microplates (Corning) on a CLARIOstar microplate reader (BMG labtech) using excitation filter 540–20 nm, dichroic mirror LP 566 nm, and emission filter 590–20 nm. All peptides were dissolved in water as stock solutions. For direct FP assays, the stock concentrations of the TAMRA-labeled peptides were determined based on the 5-TAMRA absorbance at 556 nm (extinction coefficient ε = 89,000 M^–1 cm^–1) measured on a NanoDrop 2000 (Thermo Scientific) and verified by amino acid analysis (Department of Biochemistry, University of Cambridge). TNKS2 ARC4 (488–649) or TNKS1 ARC2–3 (315–662) was diluted 2-fold serially in the assay buffer (50 mM HEPES pH 7.5, 300 mM NaCl, 2 mM DTT, 0.05% (v/v) Tween 20) for a 12-point titration curve in triplicate. The diluted TAMRA-labeled peptide (20 nM, 50 μL) was mixed with the serially diluted TNKS2 ARC4 or TNKS1 ARC2–3 (40–0 μM, 50 μL) in each well and incubated for 30 min at 25 °C before the measurement. Data were analyzed on GraphPad Prism 5.0, and the dissociation constant, Kd, was determined using the following equation assuming the ratio between the concentration of the bound and that of the total TAMRA-labeled peptide is proportional to the fluorescence polarization [drawing 1] where FP is the fluorescence polarization, B is the minimum FP, T is the maximum FP, L0 is the total concentration of TAMRA-labeled peptide, P0 is the total concentration of protein, and Kd is the dissociation constant.
row,Molecule,Kd [nM]
1,CN(C)c1ccc2c(c1)Oc1cc(N(C)C)ccc1C21OC(=O)c2cc(C(=O)NCCCCCC(=O)N[C@@H](CCCNC(=N)N)C(=O)N[C@@H](CCC(=O)O)C(=O)N[C@H]3CCn4cc(nn4)CCCCc4cn(nn4)CC[C@@H](C(=O)N[C@@H](CCC(=O)O)C(N)=O)NC(=O)CNC(=O)[C@H](CC(=O)O)NC(=O)CNC3=O)ccc21 [T-cp4n2m4],800 ± 20

# Biological target: T2, human tankyrase 2 ankyrin repeat cluster 4 (TNKS2 ARC4, residues 488-649) (human, UniProt Q9H2K2 488-649)
# T2 sequence (looked up): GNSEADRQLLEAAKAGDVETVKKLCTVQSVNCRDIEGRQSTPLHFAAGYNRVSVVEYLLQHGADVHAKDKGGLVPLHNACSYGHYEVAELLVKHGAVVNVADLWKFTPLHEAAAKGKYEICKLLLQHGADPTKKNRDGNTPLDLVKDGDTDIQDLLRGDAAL
# Test: fluorescence polarisation; direct: TNKS2 ARC4 or TNKS1 ARC2-3 diluted 2-fold serially (40-0 uM, 50 uL) and mixed with TAMRA-labeled peptide (20 nM, 50 uL); 50 mM HEPES pH 7.5, 300 mM NaCl, 2 mM DTT, 0.05% Tween 20; 30 min, 25 C
# Details: both partners purified
row,Molecule,Kd [µM]
1,{5‑TAMRA-Ahx}-RE[Aha]GDG[Dap(N3)]E (triazole 3-7 via m3; reading uncertain) [T-cp4n21m3],22.8 ± 1.3
2,{5‑TAMRA-Ahx}-RE[Dap(N3)]GDG[Aha]E (triazole 3-7 via m4; reading uncertain) [T-cp4n12m4],8.9 ± 0.3
3,{5‑TAMRA-Ahx}-RE[Dap(N3)]GDG[Aha]E (triazole 3-7 via m5; reading uncertain) [T-cp4n12m5],7.7 ± 0.3
4,{5‑TAMRA-Ahx}-RE[Aha]GDG[n3]E (triazole 3-7 via m5; reading uncertain) [T-cp4n23m5],4.3 ± 0.2
5,{5‑TAMRA-Ahx}-RE[n3]GDG[Aha]E (triazole 3-7 via m5; reading uncertain) [T-cp4n32m5],4.2 ± 0.12
6,{5‑TAMRA-Ahx}-RE[n3]GDG[Aha]E (triazole 3-7 via m4; reading uncertain) [T-cp4n32m4],11.1 ± 0.9
7,{5‑TAMRA-Ahx}-RE[n3]GDG[n3]E (bridge 3-7; not fully specified (bridges)) [T-cp4n3m3c],15.4 ± 0.6
8,{5‑TAMRA-Ahx}-RE[Aha]GDG[Dap(N3)]E (triazole 3-7 via m4; reading uncertain) [T-cp4n21m4],5.8 ± 0.2
9,{5‑TAMRA-Ahx}-RE[n3]GDG[Aha]E (triazole 3-7 via m3; reading uncertain) [T-cp4n32m3],6.1 ± 0.2
10,{5‑TAMRA-Ahx}-RE[Aha]GDG[Dap(N3)]E (triazole 3-7 via m5; reading uncertain) [T-cp4n21m5],13.6 ± 1.1
11,{5‑TAMRA-Ahx}-RE[Aha]GDG[n3]E (triazole 3-7 via m4; reading uncertain) [T-cp4n23m4],1.7 ± 0.05
12,{5‑TAMRA-Ahx}-RE[Aha]GDG[n3]E (triazole 3-7 via m3c; reading uncertain) [T-cp4n23m3c],15.5 ± 0.6
13,{5‑TAMRA-Ahx}-RE[n3]GDG[Aha]E (triazole 3-7 via m3c; reading uncertain) [T-cp4n32m3c],15.3 ± 0.6
14,{5‑TAMRA-Ahx}-RE[Dap(N3)]GDG[Aha]E (triazole 3-7 via m3; reading uncertain) [T-cp4n12m3],12.5 ± 0.5
15,{5‑TAMRA-Ahx}-RE[Dap(N3)]GDG[Dap(N3)]E (triazole 3-7 via m4; reading uncertain) [T-cp4n1m4],61.8 ± 33.9

# Biological target: T2, human tankyrase 2 ankyrin repeat …
# Test: ITC; TNKS2 ARC4 (160-280 uM) or TNKS1 ARC2-3 (60-150 uM) titrated into the cell with unlabeled peptide (5-15 uM) or Axin1 fragment (8-12 uM); PBS, 0.5 mM TCEP; 25 C; one-site model; stoichiometry = TNKS per peptide or Axin1
# Details: both partners purified
Molecule,Kd [nM],stoichiometry N
Ac-RE[Aha]GDG[Aha]E-NH2 (bridge 3-7; not fully specified (bridges)) [cp4n2m3c (unlabeled)],640 ± 10,1.1 ± 0.002
Ac-RE[Aha]GDG[Aha]E-NH2 (triazole 3-7 via m3; reading uncertain) [cp4n2m3 (unlabeled)],890 ± 40,0.9 ± 0.005
Ac-REAGDGEE-NH2 [pep1 (unlabeled linear consensus peptide Ac-REAGDGEE)],1180 ± 40,1 ± 0.004

# Biological target: T3, human tankyrase 1 ankyrin repeat clusters 2-3 (TNKS1 ARC2-3, residues 315-662) (human, UniProt O95271 315-662)
# T3 sequence (looked up): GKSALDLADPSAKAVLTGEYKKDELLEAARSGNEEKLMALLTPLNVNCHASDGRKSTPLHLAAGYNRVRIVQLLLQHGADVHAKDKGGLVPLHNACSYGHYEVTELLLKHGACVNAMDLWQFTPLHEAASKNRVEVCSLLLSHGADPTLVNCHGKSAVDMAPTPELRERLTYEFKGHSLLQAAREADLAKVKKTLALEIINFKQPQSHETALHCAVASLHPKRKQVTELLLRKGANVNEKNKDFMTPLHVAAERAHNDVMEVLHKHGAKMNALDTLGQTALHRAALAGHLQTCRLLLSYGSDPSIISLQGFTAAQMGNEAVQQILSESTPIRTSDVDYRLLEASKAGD
# Test: as above
# Details: both partners purified
Molecule,Kd [nM],stoichiometry N
Ac-RE[Aha]GDG[Aha]E-NH2 (bridge 3-7; not fully specified (bridges)) [cp4n2m3c (unlabeled)],370 ± 40,1.1 ± 0.02
Ac-RE[Aha]GDG[Aha]E-NH2 (triazole 3-7 via m3; reading uncertain) [cp4n2m3 (unlabeled)],260 ± 30,0.9 ± 0.01
Ac-REAGDGEE-NH2 [pep1 (unlabeled linear consensus peptide Ac-REAGDGEE)],–,0.9 ± 0.01

# Biological target: T2, human tankyrase 2 ankyrin repeat …
# Test: fluorescence polarisation; competition: unlabeled peptide or Axin1 fragment diluted 2-fold serially against TAMRA-labeled pep1 (20 nM) with TNKS2 ARC4 (3 uM); PBS, 0.05% Tween 20; 30 min, 25 C
# Details: both partners purified
row,Molecule,Kd [µM]
1,Ac-R[Lys(N3)]AGDGE[Lys(N3)] (bridge 2-8; not fully specified (bridges)) [cp3n4m5],23.4 ± 4.2
2,Ac-R[n3]AGDG[n3]E (bridge 2-7; not fully specified (bridges)) [cp2n3m7N],14.7 ± 0.8
3,Ac-R[Lys(N3)]AGDG[Lys(N3)]E (bridge 2-7; not fully specified (bridges)) [cp2n4m5],14.1 ± 4
4,Ac-R[Lys(N3)]AGDG[Lys(N3)]E (bridge 2-7; not fully specified (bridges)) [cp2n4m7N],32.4 ± 1.7
5,Ac-RE[Lys(N3)]GDGE[Lys(N3)] (bridge 3-8; not fully specified (bridges)) [cp5n4m5c],13.9 ± 2.1
6,Ac-R[Aha]AGDG[Aha]E (bridge 2-7; not fully specified (bridges)) [cp2n2m7N],53.3 ± 8.3
7,Ac-RE[Lys(N3)]GDGE[Lys(N3)] (bridge 3-8; not fully specified (bridges)) [cp5n4m5],7.9 ± 1.2
8,Ac-RE[Lys(N3)]GDG[Lys(N3)]E (bridge 3-7; not fully specified (bridges)) [cp4n4m7N],6.5 ± 0.2
9,Ac-RE[Lys(N3)]GDG[Lys(N3)]E (bridge 3-7; not fully specified (bridges)) [cp4n4m5c],16.7 ± 2
10,Ac-R[Lys(N3)]AGDGE[Lys(N3)] (bridge 2-8; not fully specified (bridges)) [cp3n4m7N],35.5 ± 2.5
11,Ac-RE[Lys(N3)]GDG[Lys(N3)]E-NH2 (bridge 3-7; not fully specified (bridges)) [cp4n4m5],2.8 ± 0.1
